Reference: US12460006B2, “Antibodies against integrin alpha 11 beta 1” (Momenta Pharmaceuticals, Inc., priority 2019, dated 2025)
Entries after “also recorded” stand apart in the source; their conditions may differ.

T1: I domain of α11β1 (Homo sapiens, UniProt Q9UKX5)
T1 construct: An in-house generated I domain of α11β1 was used; made in house
T1 sequence (Q9UKX5 164-345 limits assumed): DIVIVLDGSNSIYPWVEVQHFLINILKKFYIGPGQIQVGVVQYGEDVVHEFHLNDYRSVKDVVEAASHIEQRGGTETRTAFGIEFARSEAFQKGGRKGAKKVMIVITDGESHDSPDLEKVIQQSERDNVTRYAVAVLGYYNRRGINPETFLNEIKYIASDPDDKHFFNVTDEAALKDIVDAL


Experiments:
I domain of α11β1 = target: T1, I domain of α11β1; experiment: ELISA binding to in-house generated I domain of α11β1; conditions: for I Domain binding: Yes/No
Procedure: 0.25 μg/mL of target antigen (recombinant human or mouse α11β1) was plated in a 96-well plate over night at 4° C. Plates were washed (PBS with 0.1% Tween-20), blocked (PBS with 2% BSA and 0.05% Tween-20) for 1 hour at room temperature and incubated with a range of antibody concentrations for 1 hour at room temperature. Subsequently, plates were washed and incubated with biotinylated anti-rabbit/mouse/human IgG in a 1:1000 dilution buffer and incubated for 1 hour at room temperature. After washing the plates, Streptavidin HRP was added at 1:200 in dilution buffer and incubated for 1 hour at room temperature. Ultra TMB ELISA substrate solution was added and the plates incubated for 5 minutes on a plate shaker. The reaction was stopped by adding stop solution to each well and plates were read at 450 nm.
22 Data was also collected to determine whether antibodies of interest bind to the I domain of α11β1. An in-house generated I domain of α11β1 was used. […] Mouse antibodies 10-F23, 10-L15, 7-O8, 6-A12, 9-G05 and 9-E16 and rabbit antibodies 7-H12 and 2-D3 were also tested for binding against the in-house generated α11031 domain. FIGS. 3A and 3B show graphs illustrating binding data from exemplary mAbs.

myofibroblasts (MF) = experiment: FACS antibody binding to myofibroblasts; set-up: species or system human; conditions: binding Yes/No
Procedure: (§1) Human Pulmonary Fibroblasts (ScienCell) were cultured in complete Fibroblast Growth Medium (ScienCell) until 80% confluent in T-150 flasks. Cells were washed and harvested using Accutase. Cells were seeded into T-150 flasks at 7,500 cells/cm^2 in complete FGF and cultured for 72 hours. Cells were then washed and starved in serum reduced medium for 24 hours. After starvation, cells were treated with TGFβ-1 (R&D Systems) for 72 hours. Cells were harvested using Accutase and seeded in 96-well conical bottom plates. Cells were blocked with Heat Inactived Fetal Bovine Serum (Gibco) for 30 minutes at 4° C. Cells were then incubated with anti-α11 antibodies at the doses described in each figure for 30 minutes at 4° C. A human anti-α11 antibody (Creative BioLabs) was included as a positive control as well as the appropriate IgG isotype negative controls. Cells were washed twice and incubated with PE conjugated secondary antibodies specific to the IgG class of the anti-α11 antibodies being tested for 30 minutes at 4° C. Cells were washed twice and fixed in 1% PFA for 30 minutes. Cells were acquired on a FACS Verse […]. Data were analyzed by gating on single cells and determining the geometric Mean Fluorescence Intensity (gMFI) in the PE channel for each sample.
(§2) Binding to a physiologically relevant primary human cell type was also tested. Human pulmonary fibroblasts (HPF) and TGFβ treatment were used to induce a fibroblast-to-myofibroblast transition (FMT), giving rise to myofibroblasts (MF). […] Additionally, HPFs express α11 and α2β1, other collagen binding receptors, which means that HPFs can be to test cross-reactivity of antibodies of interest.

[1] = system: Human Pulmonary Fibroblasts; experiment: Fibroblast-to-Myofibroblasts Transition (FMT), αSMA expression; format: cell-based; conditions: for inhibition of αSMA expression / FMT: TGFβ-induced FMT; for Inhibition of FMT: Yes/No
Procedure: Human Pulmonary Fibroblasts (ScienCell) were cultured in complete Fibroblast Growth Medium (ScienCell) until 80% confluent. Cells were washed and harvested using Accutase. Cells were seeded onto tissue culture-treated 96 well plates at 20,000 cells/well in complete Fibroblast Growth Medium. After 24 hours, cells were washed and starved in serum reduced medium for an additional 24 hours. After starvation, cells were treated with TGFβ-1 (R&D Systems) with or without anti-α11 antibodies. A polyclonal rabbit anti-human α11 antibody was used as a positive control. Appropriate IgG isotype controls were also included. After 48 hours, cells were harvested, fixed, permeabilized and stained with AlexaFluor488 Labeled Anti-αSMA (α-smooth muscle actin) (Invitrogen). Cells were acquired on a FACS Verse (Benton Dickson) to determine expression levels of αSMA. Data were analyzed by gating on single cells and determining the geometric Mean Fluorescence Intensity (gMFI) in the FITC channel for each sample. gMFI for each sample was normalized to the untreated control and presented as % inhibition.
In addition to the binding abilities described above, it is important for an anti-α11β1 antibody to inhibit the fibroblast-to-myofibroblast transition (FMT). It is now appreciated that myofibroblasts are a heterogeneous cell population, existing in different activation states, with the main function of producing and contracting collagen extracellular matrix (ECM). FMT is a multi-step event that is controlled by a changing mechanical environment in tissues undergoing repair. TGFβ is one of the potent factors that potentiates this process and alpha smooth muscle actin (αSMA) is one of the main markers that becomes overexpressed when fibroblasts are undergoing the transition to becoming myofibroblasts. The presence of αSMA enhances fibroblast contraction and guides myofibroblast activation through an intracellular feedback loop. Because αSMA is the main molecular marker of myofibroblasts, the ability of the novel anti-α11β1 mAbs to inhibit αSMA expression in TGFβ-induced FMT was tested.

[2] = system: CHO-K1 cells expressing human α11; experiment: Cell adhesion inhibition (xCelligence), type I collagen; format: cell-based; conditions: for inhibition of cell adhesion to type I collagen: CHO-K1 hu α11 cells; for Inhibition of CHO-K1 adhesion to collagen: Yes/No
Procedure: 0.6×10^6 cells/mL were incubated with each antibody at a range of concentrations for 20 minutes at 37° C. E-Plate VIEW 96 PET plate coated with 100 ng/mL type I collagen or PBS overnight at room temperature was blocked in 3% BSA for 1 house at room temperature. After washing the plate with PBS, cell and antibody mixture was added to the wells and the plate was places into an xCelligence machine. Cell adhesion was recorded over 6 hours. The time point of maximum cell adhesion was used for comparison relative to control.
A CHO-K1 hu α11 cell line was used to assess the ability of mAbs to block α11β1-mediated binding to type I collagen. […] In the “Untreated” condition, cells were plated on type I collagen but no antibody was added and in the “Uncoated” condition, cells were seeded onto BSA-coated wells containing no type I collagen. Statistics were performed using one-way ANOVA followed by Dunnett's multiple comparisons test. […] Therefore, it is possible that these mAbs bind on an α11β1 domain that keeps the integrin in a low or intermediate affinity state. […] Nine human mAbs were also tested for their ability to inhibit the binding of human CHO-α11 cells to type I collagen.

[3] = system: human pulmonary fibroblasts (HPFs); experiment: FACS antibody binding to human pulmonary fibroblasts; conditions: for HPF FACS: binding Yes/No
Procedure: as §1, §2

Molecule | I Domain binding (I domain of α11β1) | MF FACS (myofibroblasts (MF)) | binding to HPFs ([3]; FACS) | HPF FACS [3] | I-domain binder (I domain of α11β1) | inhibition of αSMA expression / FMT [1] | Inhibition of FMT [1] | inhibition of cell adhesion to type I collagen [2] | Inhibition of CHO-K1 adhesion to collagen [2]
24E4G6: rat anti-α11β1 mAb; VH SEQ ID NO: 147, VL SEQ ID NO: 148 (antibody, V domains shown) VH: MELELSLIFIFSLLKDVQCEVQLVESGGSLVQPGGSLKLSCVASGYTFSNYWMDWVRQSPGKSLEWIGEINTDGRRTNYAPSIKDRFTISRDNAKSTLYLQMSNVKSDDTAIYYCTILRVYPHYFDYWGQGVMVTVSS VL: MMSPAQFLFLLMLWIQEARGDVVMTQTPPSLSVAIGQSVSISCKSSQSLVYSDGETYLHWFLQSPGRSPKRLIYHVSNLGSGVPDRFSGTGSLTDFTLRISRVEAEDLGVYYCAQTTHFPPTFGAGTKLELK | No | Yes |  | No | did not bind to the I-domain; also recorded: neither of the antibodies was found to be an I-domain binder | significantly inhibited αSMA expression | Yes | nor did it inhibit cell adhesion | No
16E10: rabbit anti-α11β1 mAb; heavy chain SEQ ID NO: 161, light chain SEQ ID NO: 162 (antibody) heavy: METGLRWLLLVAVLKGVQCQSLEESGGDLVKPGASLTLTCRVSGFSFSSSYYMCWVRQAPGKGLEWIACIGTTRGSTYYATWAKGRFTISKISSTTVTLQMTSLTDADTATYFCARDATGYRINTIGLYFNLWGPGTLVTVSSGQPKAPSVFPLAPCCGDTPSSTVTLGCLVKGYLPEPVTVTWNSGTLTNGVRTFPSVRQSSGLYSLSSVVSVTSSSQPVTCNVAHPATNTKVDKTVAPSTCSKPMCPPPELPGGPSVFIFPPKPKDTLMISRTPEVTCVVVDVSQDDPEVQFTWYINNEQVRTARPPLREQQFNSTIRVVSTLPIAHQDWLRGKEFKCKVHNKALPAPIEKTISKARGQPLEPKVYTMGPPREELSSRSVSLTCMINGFYPSDISVEWEKNGKAEDNYKTTPTVLDSDGSYFLYSKLSVPTSEWQRGDVFTCSVMHEALHNHYTQKSISRSPGK light: MDTRAPTQLLGLLLLWLPGARCAFELTQTPSSVEAAVGGTPTIKCQASQTIYSYLSWYQQKPGQPPKLLIYEASKLASGVPSRFSGSGSGTDYTLTISDLECADAATYYCQSYHGTASTEYNTFGGGTEVVVRGDPVAPTVLIFPPAADQVATGTVTIVCVANKYFPDVTVTWEVDGTTQTTGIENSKTPQNSADCTYNLSSTLTLTSTQYNSHKEYTCKVTQGTTSVVQSFNRGDC | No | Yes |  | No |  | inhibit both ligand binding and FMT | Yes | inhibit both ligand binding and FMT | Yes

Now from value to molecule, other results behind:

I Domain binding (I domain of α11β1) | MF FACS (myofibroblasts (MF)) | binding to HPFs ([3]; FACS) | HPF FACS [3] | Molecule | I-domain binder (I domain of α11β1) | inhibition of αSMA expression / FMT [1] | Inhibition of FMT [1] | inhibition of cell adhesion to type I collagen [2] | Inhibition of CHO-K1 adhesion to collagen [2]
Yes | Yes | some HPF binding | Low | 9-E16: mouse anti-α11β1 mAb; VH SEQ ID NO: 111, VL SEQ ID NO: 112 (antibody, V domains shown) VH: EVQLQQSGPELVKPGASVKISCKASGYTFTDYYMHWVKQKPGQGLEWIGEIYPGSGNPYYNEKFKGKATLTADKSSSSAYMQLSSLTSEDSAVYFCARTSYGRVGTGFAYWGQGTLVTVSA VL: NFVMTQTPLSLPVSLGDQASISCRSSQSLLHSNGNTYLHWYLQKPGQSPKLLIYKVSNRFSGVPDRFSGSGSGTDFTLKINRVETEDLGIYFCSQSSHVPTFGAGTKLELK | I domain binders; also recorded: I-domain binders; also recorded: bound the I domain | FMT inhibitors | Yes | significantly blocked cell adhesion; also recorded: decrease cell adhesion | Yes
Yes | Yes |  | No | 9-G05: mouse anti-α11β1 mAb; VH SEQ ID NO: 103, VL SEQ ID NO: 104 (antibody, V domains shown) VH: EVQLQQSGPELVKPGASVKIPCKASGYTFPDYNMDWVKQSHGKSLEWIGYINPDNGGTIYNQKFKGKATLTVDKSSSTAYMELRSLTSEDTAVYYCARLDSSGYGYYAMDYWGQGTSVTVSS VL: DIVLTQSPASLAVSLGQRATISCRASESVDNYGISFMHWYQQKPGQPPKLLIYRASNLDSEIPARFSGSGSRTDFTLTIDPVETDDVATYYCQQSYKDPRTFGGGTKLEIK | I domain binders; also recorded: I-domain binders; also recorded: bound the I domain | FMT inhibitors | Yes | significantly blocked cell adhesion; also recorded: decrease cell adhesion | Yes
No | Yes |  | No | 8-I14: mouse anti-α11β1 mAb; VH SEQ ID NO: 109, VL SEQ ID NO: 110 (antibody, V domains shown) VH: EVQLQQSGPELVKPGASVKKSCKASGYTFTDYYMHWVKQKPGQGLEWIGKIYPGSGNTHYNEKFKGKATLTADKSSSTAYMQLSSLTSEDSAVYFCATNYYGYRAMNYWGQGSSVTVSS VL: DIHLTQSPSSLSASLGERISLTCRASQDIYISLNWFQQKPDGTIKLLIYGTSSLDSGVPKRFSGSRSGSDYSLTISSLESEDFADYYCLQYASSPYTFGGGTKLEIK |  | only inhibited FMT | Yes |  | No
